Assays:
Assay in all cases: EMSA
[1] = tested on: MeCP2 MBD S134C S134C (Homo sapiens); conditions: same buffer
[2] = biological target: MeCP2 MBD (hMeCP2[90-181]) wild type (Homo sapiens) (UniProt P51608)
[3] = tested on: MeCP2 MBD R133C R133C (Homo sapiens); conditions: same buffer
[4] = unmodified C in CpG of one strand, 5hmC in the other
[5] = 5hmC in CpG of one strand, 5fC in the other
[6] = 5mC in CpG of one strand, 5fC in the other
[7] = 5mC in CpG of one strand, 5hmC in the other

Sequence of MeCP2 MBD (hMeCP2[90-181]) wild type (Homo sapiens) (P51608 90-181): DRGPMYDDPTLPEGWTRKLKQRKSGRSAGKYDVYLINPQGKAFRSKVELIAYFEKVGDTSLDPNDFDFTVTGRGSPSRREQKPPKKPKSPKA

## 24-mer C/hmC CpG duplex
[1]; [4]
  Kd: 7600 nM
[2]; unmodified C in CpG of one strand, 5hmC in the other, same buffer
  Kd: 1080 nM
[3]; [4]
  Kd: 8100 nM

## 24-mer hmC/fC CpG duplex
[1]; [5]
  Kd: 4600 nM
[2]; 5hmC in CpG of one strand, 5fC in the other, same buffer
  Kd: 540 nM
[3]; [5]
  Kd: 1630 nM

## 24-mer hmC/hmC CpG duplex
[1]; 5hmC in CpG on both strands
  Kd: 7600 nM
[2]; 5hmC in CpG on both strands, same buffer
  Kd: 970 nM
[3]; 5hmC in CpG on both strands
  Kd: 2560 nM

## 24-mer mC/fC CpG duplex
[1]; [6]
  Kd: 790 nM
[2]; 5mC in CpG of one strand, 5fC in the other, same buffer
  Kd: 197 nM
[3]; [6]
  Kd: 540 nM

## 24-mer mC/hmC CpG duplex
[1]; [7]
  Kd: 1150 nM
[2]; 5mC in CpG of one strand, 5hmC in the other, same buffer
  Kd: 224 nM
[3]; [7]
  Kd: 660 nM

## 24-mer mC/mC CpG duplex
[1]; 5mC in CpG on both strands
  Kd: 117 nM
[2]; 5mC in CpG on both strands, room temperature, 50 ng/uL poly(dA)poly(dT), 20 mM HEPES pH 7.3 buffer
  Kd: 27 nM
[3]; 5mC in CpG on both strands
  Kd: 118 nM

From patent US20230043577
